Laboratory results: publication PMC11931385, “Structural and functional analysis of cancer-associated missense variants in the retinoblastoma protein pocket domain” (The Journal of Biological Chemistry, 2025)
Positions count from the first letter of the chain named. Numbers in names are those of the source. No end group written: not given here. TMR = tetramethyl rhodamine dye

T1: Rb^P S463L (human, UniProt P06400 380-788, S463L)
T1 construct: also called variant 10
T1 sequence (looked up): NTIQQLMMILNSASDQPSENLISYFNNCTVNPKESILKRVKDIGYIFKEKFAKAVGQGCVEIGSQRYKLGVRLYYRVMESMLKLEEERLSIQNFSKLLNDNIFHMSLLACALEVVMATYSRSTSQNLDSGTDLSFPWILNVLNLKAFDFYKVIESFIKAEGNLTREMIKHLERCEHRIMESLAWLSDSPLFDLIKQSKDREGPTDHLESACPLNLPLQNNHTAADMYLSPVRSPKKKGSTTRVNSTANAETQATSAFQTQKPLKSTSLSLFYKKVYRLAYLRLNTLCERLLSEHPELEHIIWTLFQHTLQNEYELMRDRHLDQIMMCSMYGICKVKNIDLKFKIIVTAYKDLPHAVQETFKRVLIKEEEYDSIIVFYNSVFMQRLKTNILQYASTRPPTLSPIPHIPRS

T2: retinoblastoma protein pocket domain (Rb^P), wild type (human, UniProt P06400 380-788)
T2 construct: also called WT Rb^P; WT
T2 sequence (looked up): T1 sequence (looked up) with L84S

T3: Rb^P M704V (human, UniProt P06400 380-788, M704V)
T3 construct: also called variant 66
T3 sequence (looked up): T1 sequence (looked up) with L84S, M325V

T4: Rb^P I703F (human, UniProt P06400 380-788, I703F)
T4 construct: also called variant 64
T4 sequence (looked up): T1 sequence (looked up) with L84S, I324F

T5: Rb^P S751Y (human, UniProt P06400 380-788, S751Y)
T5 construct: also called variant 72
T5 sequence (looked up): T1 sequence (looked up) with L84S, S372Y

B1: TMR-E2F1^TD, peptide of the E2F1 transactivation domain (peptide)
peptide: {TMR}-GEGIRDLFDCDFGDLTPLD
notes: also called E2F^TD; source: synthetic peptide, bought: GenScript
B2: TMR-E7^LxCxE, LxCxE peptide of the E7 oncoprotein from HPV (peptide)
peptide: DLYCYEQLN
modifications: also: TMR label, position not given here
notes: source: synthetic peptide, bought: GenScript

Assays:
Conditions in all cases: both partners purified
[1] = biological target: T1, Rb^P S463L; experiment: fluorescence polarisation; 25 °C; unlabeled Rb^P titrated against 1.5 nM TMR-E2F1^TD or 7.5 nM TMR-E7^LxCxE; 25 mM Tris pH 8.0, 200 mM NaCl, 1 mM DTT, 0.1% Tween-20; 2 min incubation; quadratic fit; apparent Kd for the variants, Kd for WT
[2] = biological target: T2, retinoblastoma protein pocket domain …; experiment: fluorescence polarisation; 25 °C after warming to 37 °C (7 min ramp, 2 min at 37 °C), 1 min on ice and 3 min at 25 °C; unlabeled Rb^P against 1.5 nM TMR-E2F1^TD or 7.5 nM TMR-E7^LxCxE; 25 mM Tris pH 8.0, 200 mM NaCl, 1 mM DTT, 0.1% Tween-20; apparent Kd
[3] = biological target: T3, Rb^P M704V; experiment: as above
[4] = biological target: T4, Rb^P I703F; experiment: as above
[5] = biological target: T5, Rb^P S751Y; experiment: as above

Binder	Kd [1]	Kd [2]	Kd [3]	Kd [4]	Kd [5]
B1	26 nM	17 nM	46 nM	94 nM	28 nM
B2	10 nM	7 nM	14 nM	53 nM	119 nM
